Measured values: publication PMC10397247

T1: 4H918-bA
T1 chain: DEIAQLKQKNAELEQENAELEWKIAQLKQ

T2: 4H967-bA
T2 chain: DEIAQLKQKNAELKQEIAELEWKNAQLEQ

T3: 4H953-bA
T3 chain: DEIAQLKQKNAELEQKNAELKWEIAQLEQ

T4: 4H4001-bA
T4 chain: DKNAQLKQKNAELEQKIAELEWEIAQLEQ

T5: 4H462-bA
T5 chain: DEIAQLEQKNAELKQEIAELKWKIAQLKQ

T6: 4H883-bA
T6 chain: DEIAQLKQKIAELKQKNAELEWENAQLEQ

T7: 4H568-bA
T7 chain: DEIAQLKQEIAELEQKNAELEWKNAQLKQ

T8: 4H72-bA
T8 chain: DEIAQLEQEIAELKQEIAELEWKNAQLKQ

T9: 4H797-bA
T9 chain: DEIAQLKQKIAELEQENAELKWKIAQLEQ

T10: 4H3843-bA
T10 chain: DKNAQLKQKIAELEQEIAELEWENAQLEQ

T11: 4H687-bA
T11 chain: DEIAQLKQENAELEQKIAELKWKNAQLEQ

T12: 4H607-bA
T12 chain: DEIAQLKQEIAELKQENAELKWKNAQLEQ

T13: 4H688-AA
T13 chain: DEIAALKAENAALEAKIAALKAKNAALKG

T14: 4H406-AA
T14 chain: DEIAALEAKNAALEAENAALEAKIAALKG

T15: 4H376-AA
T15 chain: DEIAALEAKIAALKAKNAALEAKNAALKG

T16: 4H963-AA
T16 chain: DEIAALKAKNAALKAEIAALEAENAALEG

T17: O8-bA
T17 chain: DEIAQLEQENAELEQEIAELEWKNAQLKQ

T18: O9-bA
T18 chain: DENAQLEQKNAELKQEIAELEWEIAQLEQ

T19: O7-bA
T19 chain: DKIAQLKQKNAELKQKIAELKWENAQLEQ

T20: 4H3782-bA
T20 chain: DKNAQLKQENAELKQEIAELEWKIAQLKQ

T21: 4H687-bN
T21 chain: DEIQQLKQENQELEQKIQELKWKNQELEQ

T22: 4H462-bN
T22 chain: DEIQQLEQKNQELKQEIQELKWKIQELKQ

T23: 4H754-bA
T23 chain: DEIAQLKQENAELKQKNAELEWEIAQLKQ

T24: 4H454-bA
T24 chain: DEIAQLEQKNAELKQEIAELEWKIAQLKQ

T25: 4H908-bA
T25 chain: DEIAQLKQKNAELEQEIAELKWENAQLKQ

T26: 4H717-bA
T26 chain: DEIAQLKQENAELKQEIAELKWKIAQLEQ

T27: 4H3855-bA
T27 chain: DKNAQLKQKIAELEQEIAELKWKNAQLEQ

T28: 4H3855-bH
T28 chain: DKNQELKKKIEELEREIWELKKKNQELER


Columns and labels:
4H918-bA = biological target: T1, 4H918-bA; experiment: two-hybrid library CCNG1;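 further: natural log of median RNA to DNA barcode read ratio; higher means stronger binding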
4H967-bA = biological target: T2, 4H967-bA; experiment: two-hybrid library CCNG1;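 further: natural log of median RNA to DNA barcode read ratio; higher means stronger binding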
4H953-bA = biological target: T3, 4H953-bA; experiment: two-hybrid library CCNG1;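 further: natural log of median RNA to DNA barcode read ratio; higher means stronger binding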
4H4001-bA = biological target: T4, 4H4001-bA; experiment: two-hybrid library CCNG1;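 further: natural log of median RNA to DNA barcode read ratio; higher means stronger binding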
4H462-bA = biological target: T5, 4H462-bA; experiment: two-hybrid library CCNG1
4H883-bA = biological target: T6, 4H883-bA; experiment: two-hybrid library CCNG1
4H568-bA = biological target: T7, 4H568-bA; experiment: two-hybrid library CCNG1
4H72-bA = biological target: T8, 4H72-bA; experiment: two-hybrid library CCNG1
4H797-bA = biological target: T9, 4H797-bA; experiment: two-hybrid library CCNG1
4H3843-bA = biological target: T10, 4H3843-bA; experiment: two-hybrid library CCNG1
4H687-bA = biological target: T11, 4H687-bA; experiment: two-hybrid library CCNG1
4H607-bA = biological target: T12, 4H607-bA; experiment: two-hybrid library CCNG1
4H688-AA = biological target: T13, 4H688-AA; experiment: two-hybrid library CCmax; settings: mean of both orientations
4H406-AA = biological target: T14, 4H406-AA; experiment: two-hybrid library CCmax; settings: mean of both orientations
4H376-AA = biological target: T15, 4H376-AA; experiment: two-hybrid library CCmax
4H963-AA = biological target: T16, 4H963-AA; experiment: two-hybrid library CCmax; settings: mean of both orientations
O8-bA = biological target: T17, O8-bA; experiment: two-hybrid library CCNG1
O9-bA = biological target: T18, O9-bA; experiment: two-hybrid library CCNG1
O7-bA = biological target: T19, O7-bA; experiment: two-hybrid library CCNG1
4H3782-bA = biological target: T20, 4H3782-bA; experiment: two-hybrid library CCNG1
4H687-bN = biological target: T21, 4H687-bN; experiment: two-hybrid library CCNG1
4H462-bN = biological target: T22, 4H462-bN; experiment: two-hybrid library CCNG1
4H754-bA = biological target: T23, 4H754-bA; experiment: two-hybrid library CCNG1
4H454-bA = biological target: T24, 4H454-bA; experiment: two-hybrid library CCNG1
4H908-bA = biological target: T25, 4H908-bA; experiment: two-hybrid library CCNG1
4H717-bA = biological target: T26, 4H717-bA; experiment: two-hybrid library CCNG1
4H3855-bA = biological target: T27, 4H3855-bA; experiment: two-hybrid library CCNG1
4H3855-bH = biological target: T28, 4H3855-bH; experiment: two-hybrid library CCNG1

interaction score (4H918-bA) | interaction score (4H967-bA) | interaction score (4H953-bA) | interaction score (4H4001-bA) | interaction score (4H462-bA) | interaction score (4H883-bA) | interaction score (4H568-bA) | interaction score (4H72-bA) | interaction score (4H797-bA) | interaction score (4H3843-bA) | interaction score (4H687-bA) | interaction score (4H607-bA) | interaction score (O8-bA) | interaction score (O9-bA) | interaction score (O7-bA) | Binder | other results
-1.1 | -1.25 | -1.38 | -0.268 | -0.841 | -1.14 | -1.79 | 0.286 | -0.879 | -0.878 | -0.85 | -0.651 | – | – | – | DKNAQLKQKIAELEQEIAELEWENAQLEQ [4H3843-bA] | –
– | – | – | – | – | – | – | – | – | – | – | – | – | – | – | DEIAALEAKIAALKAKNAALEAKNAALKG [4H376-AA] | interaction score (4H688-AA): -1.96; interaction score (4H406-AA): -0.774; interaction score (4H376-AA): -1.28; interaction score (4H963-AA): -1.33
– | – | – | – | – | – | – | – | – | – | – | – | 1.39 | 0.339 | 0.795 | DKNAQLKQKIAELKQENAELEWKIAQLKQ [O6-bA] | –
-1.34 | 0.0169 | -1.07 | 0.27 | 0.962 | 0.21 | -1.41 | -0.987 | 0.173 | 1.18 | 0.572 | -0.58 | – | – | – | DKNAQLKQENAELKQEIAELEWKIAQLKQ [4H3782-bA] | interaction score (4H3782-bA): 1.29; interaction score (4H687-bN): 0.761; interaction score (4H462-bN): 1.22; interaction score (4H754-bA): -0.898; interaction score (4H454-bA): 1.64; interaction score (4H908-bA): -1.42; interaction score (4H717-bA): -0.182; interaction score (4H3855-bA): 0.312; interaction score (4H3855-bH): 0.603
– | – | – | – | – | – | – | – | – | – | – | – | -0.893 | -0.954 | -0.303 | DENAQLEQEIAELEQKNAELKWEIAQLEQ [O5-bA] | –
